Experimental data reported in the RNAGym collection of RNA variant scans (doi:10.7554/elife.90254).

B1: LINE1-full (parent)
chain: UACGUAGGUGGUUUUCCCCUGAUAGUGCUAAGGGGGCCUGGAAGUUUGGACUGGGCAGAGCUCAACACAGCGUGGCAAAGUGGCUGUGGCUAGACUGCCUCUCUGGAUUCCUCGUCACUCAGCAGGGCAUCUCUGAGAGAAAUGCC

Variants of: B1
Experiment: self-cleavage, relative activity (ratio to wild type); higher = more cleavage; in vitro, sequencing; the parent is a self-cleaving ribozyme

Row | Variant | self-cleavage
1 | U47A U62A | 0.05
2 | U47A U62C | 0.06
3 | U47A U81C | 1.57
4 | U47A U85C | 0.12
5 | U47A U87A | 0.11
6 | U47A U91C | 0.63
7 | U47A U96C | 0.13
8 | U47A U100G | 1.93
9 | U47A U102A | 1.35
10 | U47A U102C | 1.19
11 | U47A U104C | 1.54
12 | U47A U108C | 1.22
13 | U47A U109C | 1.19
14 | U47A U115A | 1.05
15 | U47A U115C | 1.39
16 | U47A U119C | 1.53
17 | U47A U132A | 1.34
18 | U47A U134C | 1.39
19 | U47A U143C | 1.39
20 | U47C | 1.47
21 | U47C A50U | 1.5
22 | U47C A57G | 1.54
23 | U47C A65U | 0.1
24 | U47C A67G | 0.88

Row | Variant | self-cleavage
25 | U47C A67U | 0.2
26 | U47C A69C | 0.07
27 | U47C A69U | 0.06
28 | U47C A77C | 0.34
29 | U47C A78G | 1.64
30 | U47C A79U | 1.76
31 | U47C A94G | 0.51
32 | U47C A117G | 1.81
33 | U47C A117U | 1.33
34 | U47C A124C | 1.31
35 | U47C A124G | 1.59
36 | U47C A124U | 1.68
37 | U47C A129U | 1.74
38 | U47C A136G | 0.99
39 | U47C A138G | 1.53
40 | U47C A140G | 1.52
41 | U47C A141G | 1.51
42 | U47C A142C | 1.3
43 | U47C C51U | 1.14
44 | U47C C61U | 0.05
45 | U47C C71A | 0.68
46 | U47C C76U | 1.77
47 | U47C C84A | 0.15
48 | U47C C90G | 0.04

Row | Variant | self-cleavage
49 | U47C C95A | 0.09
50 | U47C C120U | 1.72
51 | U47C C128A | 0.73
52 | U47C C131U | 1.91
53 | U47C G53U | 1.3
54 | U47C G54A | 0.59
55 | U47C G54U | 1.48
56 | U47C G55A | 0.65
57 | U47C G72U | 2.51
58 | U47C G74C | 1.61
59 | U47C G75A | 1.95
60 | U47C G82A | 2.09
61 | U47C G86A | 0.06
62 | U47C G86U | 0.13
63 | U47C G89U | 0.04
64 | U47C G97A | 0.59
65 | U47C G97C | 1.3
66 | U47C G125U | 1.39
67 | U47C G144A | 1.44
68 | U47C U52C | 1.18
69 | U47C U81A | 2.45
70 | U47C U81G | 1.13
71 | U47C U85A | 0.13
72 | U47C U85C | 0.24

Row | Variant | self-cleavage
73 | U47C U87C | 0.48
74 | U47C U91A | 0.97
75 | U47C U96A | 0.1
76 | U47C U100C | 2.49
77 | U47C U102C | 1.9
78 | U47C U104A | 1.23
79 | U47C U104C | 2.24
80 | U47C U104G | 1.2
81 | U47C U112A | 1.02
82 | U47C U112C | 2
83 | U47C U115A | 1.75
84 | U47C U119C | 1.48
85 | U47C U134C | 1.74
86 | U47C U143A | 1.63
87 | U47G | 1.14
88 | U47G A57G | 0.62
89 | U47G A59U | 1
90 | U47G A64G | 0.23
91 | U47G A65G | 0.1
92 | U47G A67G | 0.06
93 | U47G A69G | 0.67
94 | U47G A92G | 0.17
95 | U47G A129G | 1.31
96 | U47G A138G | 0.98

Row | Variant | self-cleavage
97 | U47G A141G | 1.45
98 | U47G A142G | 1.33
99 | U47G C68U | 0.06
100 | U47G C111U | 1.62
101 | U47G U62A | 0.03
102 | U47G U73A | 1.18
103 | U47G U91A | 1.93
104 | U47G U100A | 0.42
105 | U47G U102A | 1.34
106 | U47G U104C | 1.48
107 | U47G U109C | 2.63
108 | U47G U130A | 1.23
109 | U47G U143C | 1.31
110 | G48A | 1.28
111 | G48A A50G | 0.53
112 | G48A A57G | 0.6
113 | G48A A59G | 0.03
114 | G48A A64U | 0.39
115 | G48A A78G | 1.21
116 | G48A A79G | 1.43
117 | G48A A92G | 0.09
118 | G48A A124G | 0.92
119 | G48A A124U | 1.02
120 | G48A A129U | 1.13

Row | Variant | self-cleavage
121 | G48A A140U | 1.28
122 | G48A G55U | 0.19
123 | G48A G72A | 0.96
124 | G48A U52A | 1.22
125 | G48A U62A | 0.02
126 | G48A U73A | 1.36
127 | G48A U81C | 1.14
128 | G48A U85A | 0.05
129 | G48A U85C | 0.1
130 | G48A U87C | 0.12
131 | G48A U91C | 0.09
132 | G48A U100C | 1.9
133 | G48A U102A | 1.71
134 | G48A U109A | 2.18
135 | G48A U112A | 0.83
136 | G48A U112C | 1.45
137 | G48A U130C | 1.53
138 | G48C | 1.01
139 | G48C A142G | 1.38
140 | G48U | 0.94
141 | G48U A121G | 0.99
142 | G48U A136G | 1.19
143 | G48U G125A | 1.17
144 | G48U U52A | 0.81

Row | Variant | self-cleavage
145 | G48U U102C | 1.43
146 | G48U U108C | 1.27
147 | G48U U109A | 1.42
148 | G48U U119C | 1.95
149 | G48U U132C | 1.12
150 | G48U U134C | 1.14
151 | G49A | 1
152 | G49A A50G | 0.82
153 | G49A A59G | 0.02
154 | G49A A64U | 0.33
155 | G49A A65U | 0.04
156 | G49A A67G | 0.56
157 | G49A A69G | 0.36
158 | G49A A117U | 1.05
159 | G49A A124G | 0.55
160 | G49A A138G | 1.11
161 | G49A A142G | 0.98
162 | G49A C133G | 1.39
163 | G49A G54A | 0.18
164 | G49A G72A | 1.45
165 | G49A U52C | 1.35
166 | G49A U62C | 0.03
167 | G49A U85C | 0.1
